Reference: US10702592B2, “Peptides and combination of peptides for use in immunotherapy against NHL and other cancers” (Immatics Biotechnologies GmbH, priority 2016, dated 2020)

Molecular target: HLA-A*02:01 (Homo sapiens, UniProt P04439, D140Y/D185E/D98H/E176V/E277Q/G131W/G231S/I119V/I121R/I166T/I218V/L300P/L318F/N151K/N90K/P208A/P217A/Q86G/Q94H/R138H/R169H/T345S)
Assay: MHC binding assay (UV-ligand exchange, beta2m ELISA)
Conditions: binding to HLA-A*02:01, UV-ligand exchange
Summary of the method: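 Exchange yield is an ELISA read-out: complexes diluted 100-fold, captured on streptavidin plates, detected with HRP anti-β2m and TMB at 450 nm. Standard curve from refolded HLA-A*02:01/MLA-001 (15-500 ng/ml); complexes made by UV-triggered displacement of a photolabile ligand by test peptide.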

Peptide exchange (MHC class I binding score, peptide exchange yield) | Substance
“++” (≥20% = ++) | 216 (KVVSNLPAI; listed as Homo sapiens) [compound 216]
“++++” (≥75% = ++++) | 76 (ALADLVPVDVVV; listed as Homo sapiens) [compound 76]
“+++” (≥50 = +++) | 165 (KLLEEIEFL; listed as Homo sapiens) [compound 165]
“+++” (≥50 = +++) | 181 (LLFDQNDKV; listed as Homo sapiens) [compound 181]
“+++” (≥50 = +++) | 130 (VIFSYVLGV; listed as Homo sapiens) [compound 130]
“++++” (≥75% = ++++) | 257 (FLQEWEVYA; listed as Homo sapiens) [compound 257]
“++++” (≥75% = ++++) | 255 (GMWNPNAPVFL; listed as Homo sapiens) [compound 255]
“++++” (≥75% = ++++) | 139 (FLASPLVAI; listed as Homo sapiens) [compound 139]
“+++” (≥50 = +++) | 45 (FILDDSALYL; listed as Homo sapiens) [compound 45]
“++++” (≥75% = ++++) | 55 (ILVEVDLVQA; listed as Homo sapiens) [compound 55]
“++” (≥20% = ++) | 16 (TLIAAILYL; listed as Homo sapiens) [compound 16]
“++” (≥20% = ++) | 4 (TLLGFFLAKV; listed as Homo sapiens) [compound 4]
“+++” (≥50 = +++) | 267 (SLLETGSDLLL; listed as Homo sapiens) [compound 267]
“+++” (≥50 = +++) | 48 (KILDEDLYI; listed as Homo sapiens) [compound 48]
“++” (≥20% = ++) | 232 (KVMEGTVAA; listed as Homo sapiens) [compound 232]
“++” (≥20% = ++) | 276 (NMISYVVHL; listed as Homo sapiens) [compound 276]
“+++” (≥50 = +++) | 137 (FIQQERFFL; listed as Homo sapiens) [compound 137]
“+++” (≥50 = +++) | 295 (SLAAVSQQL; listed as Homo sapiens) [compound 295]
“+” (≥10% = +) | 54 (DIFDAMFSV; listed as Homo sapiens) [compound 54]

Peptide exchange (MHC class I binding score, peptide exchange yield) | Substance
“+++” (≥50 = +++) | 159 (LLLSDSGFYL; listed as Homo sapiens) [compound 159]
“+++” (≥50 = +++) | 179 (FVDTNLYFL; listed as Homo sapiens) [compound 179]
“++” (≥20% = ++) | 241 (FIPDFIPAV; listed as Homo sapiens) [compound 241]
“++” (≥20% = ++) | 122 (AISEAQESV; listed as Homo sapiens) [compound 122]
“+++” (≥50 = +++) | 86 (GLATIRAYL; listed as Homo sapiens) [compound 86]
“++” (≥20% = ++) | 81 (FIFSYITAV; listed as Homo sapiens) [compound 81]
“+++” (≥50 = +++) | 279 (NLAGENILNPL; listed as Homo sapiens) [compound 279]
“+++” (≥50 = +++) | 65 (NLTDVSPDL; listed as Homo sapiens) [compound 65]
“+++” (≥50 = +++) | 240 (ALVPTPALFYL; listed as Homo sapiens) [compound 240]
“+++” (≥50 = +++) | 95 (LLFDLIPVVSV; listed as Homo sapiens) [compound 95]
“++” (≥20% = ++) | 91 (HLSSTTAQV; listed as Homo sapiens) [compound 91]
“+++” (≥50 = +++) | 84 (FLQELQLEHA; listed as Homo sapiens) [compound 84]
“+++” (≥50 = +++) | 169 (SSLEENLLHQV; listed as Homo sapiens) [compound 169]
“++” (≥20% = ++) | 226 (GVIDPVPEV; listed as Homo sapiens) [compound 226]
“++++” (≥75% = ++++) | 287 (ILMGHSLYM; listed as Homo sapiens) [compound 287]
“+++” (≥50 = +++) | 108 (YLAPENGYLM; listed as Homo sapiens) [compound 108]
“+++” (≥50 = +++) | 300 (IVLERNPEL; listed as Homo sapiens) [compound 300]
“+++” (≥50 = +++) | 63 (ALIEEAYGL; listed as Homo sapiens) [compound 63]
“++++” (≥75% = ++++) | 172 (TLQDSLEFI; listed as Homo sapiens) [compound 172]
